Test results: the Human Domainome abundance scans (Beltran et al. 2025)
± gives the uncertainty stated by the source.

B1: Ankyrin-3, residues 4094 to 4171; numbered along this chain, Q12955 (parent)
chain: MAIVADHLGLSWTELARELNFSVDEINQIRVENPNSLISQSFMLLKKWVTRDGKNATTDALTSVLTKINRIDIVTLLE

Variants of: B1
Test: abundance fitness (aPCA) (normalised: wild type 0, dead -1); higher = more abundant; growth selection in yeast, the domain comes from the species named
Details: Homo sapiens

Row | Variant | abundance fitness
1 | MAIVADHLGLSWTELARELNFSVDEINQIRVENPNSLISQSFMLLKKWVTRDGKNATTDALTSVLTKINRIDIVCLLE | -0.081 ± 0.071
2 | MAIVADHLGLSWTELARELNFSVDEINQIRVENPNSLISQSFMLLKKWVTRDGKNATTDALTSVLTKINRIDIVVLLE | -0.112 ± 0.088
3 | MAIVADHLGLSWTELARELNFSVDEINQIRVENPNSLISQSFMLLKKWVTRDGKNATTDALTSVLTKINRIDIVLLLE | 0.006 ± 0.056
4 | MAIVADHLGLSWTELARELNFSVDEINQIRVENPNSLISQSFMLLKKWVTRDGKNATTDALTSVLTKINRIDIVMLLE | -0.026 ± 0.1
5 | MAIVADHLGLSWTELARELNFSVDEINQIRVENPNSLISQSFMLLKKWVTRDGKNATTDALTSVLTKINRIDIVFLLE | -0.236 ± 0.22
6 | MAIVADHLGLSWTELARELNFSVDEINQIRVENPNSLISQSFMLLKKWVTRDGKNATTDALTSVLTKINRIDIVELLE | 0.079 ± 0.1
7 | MAIVADHLGLSWTELARELNFSVDEINQIRVENPNSLISQSFMLLKKWVTRDGKNATTDALTSVLTKINRIDIVHLLE | -0.219 ± 0.15
8 | MAIVADHLGLSWTELARELNFSVDEINQIRVENPNSLISQSFMLLKKWVTRDGKNATTDALTSVLTKINRIDIVRLLE | -0.002 ± 0.048
9 | MAIVADHLGLSWTELARELNFSVDEINQIRVENPNSLISQSFMLLKKWVTRDGKNATTDALTSVLTKINRIDIVILLE | -0.182 ± 0.11
10 | MAIVADHLGLSWTELARELNFSVDEINQIRVENPNSLISQSFMLLKKWVTRDGKNATTDALTSVLTKINRIDIVSLLE | -0.004 ± 0.056
11 | MAIVADHLGLSWTELARELNFSVDEINQIRVENPNSLISQSFMLLKKWVTRDGKNATTDALTSVLTKINRIDIVWLLE | -0.189 ± 0.072
12 | MAIVADHLGLSWTELARELNFSVDEINQIRVENPNSLISQSFMLLKKWVTRDGKNATTDALTSVLTKINRIDIVQLLE | 0.026 ± 0.083
13 | MAIVADHLGLSWTELARELNFSVDEINQIRVENPNSLISQSFMLLKKWVTRDGKNATTDALTSVLTKINRIDIVDLLE | -0.155 ± 0.13
14 | MAIVADHLGLSWTELARELNFSVDEINQIRVENPNSLISQSFMLLKKWVTRDGKNATTDALTSVLTKINRIDIVNLLE | 0.06 ± 0.1
15 | MAIVADHLGLSWTELARELNFSVDEINQIRVENPNSLISQSFMLLKKWVTRDGKNATTDALTSVLTKINRIDIRTLLE | -0.827 ± 0.12
16 | MAIVADHLGLSWTELARELNFSVDEINQIRVENPNSLISQSFMLLKKWVTRDGKNATTDALTSVLTKINRIDITTLLE | -0.142 ± 0.099
17 | MAIVADHLGLSWTELARELNFSVDEINQIRVENPNSLISQSFMLLKKWVTRDGKNATTDALTSVLTKINRIDIMTLLE | -0.749 ± 0.41
18 | MAIVADHLGLSWTELARELNFSVDEINQIRVENPNSLISQSFMLLKKWVTRDGKNATTDALTSVLTKINRIDINTLLE | -0.777 ± 0.33

Row | Variant | abundance fitness
19 | MAIVADHLGLSWTELARELNFSVDEINQIRVENPNSLISQSFMLLKKWVTRDGKNATTDALTSVLTKINRIDIPTLLE | -0.86 ± 0.26
20 | MAIVADHLGLSWTELARELNFSVDEINQIRVENPNSLISQSFMLLKKWVTRDGKNATTDALTSVLTKINRIDIKTLLE | -0.255 ± 0.18
21 | MAIVADHLGLSWTELARELNFSVDEINQIRVENPNSLISQSFMLLKKWVTRDGKNATTDALTSVLTKINRIDIYTLLE | -0.55 ± 0.35
22 | MAIVADHLGLSWTELARELNFSVDEINQIRVENPNSLISQSFMLLKKWVTRDGKNATTDALTSVLTKINRIDISTLLE | -0.656 ± 0.12
23 | MAIVADHLGLSWTELARELNFSVDEINQIRVENPNSLISQSFMLLKKWVTRDGKNATTDALTSVLTKINRIDILTLLE | -0.399 ± 0.074
24 | MAIVADHLGLSWTELARELNFSVDEINQIRVENPNSLISQSFMLLKKWVTRDGKNATTDALTSVLTKINRIDIVTCLE | -0.045 ± 0.096
25 | MAIVADHLGLSWTELARELNFSVDEINQIRVENPNSLISQSFMLLKKWVTRDGKNATTDALTSVLTKINRIDIVTELE | -0.185 ± 0.098
26 | MAIVADHLGLSWTELARELNFSVDEINQIRVENPNSLISQSFMLLKKWVTRDGKNATTDALTSVLTKINRIDIVTGLE | -0.457 ± 0.066
27 | MAIVADHLGLSWTELARELNFSVDEINQIRVENPNSLISQSFMLLKKWVTRDGKNATTDALTSVLTKINRIDIVTILE | 0.434 ± 0.46
28 | MAIVADHLGLSWTELARELNFSVDEINQIRVENPNSLISQSFMLLKKWVTRDGKNATTDALTSVLTKINRIDIVTQLE | 0.028 ± 0.085
29 | MAIVADHLGLSWTELARELNFSVDEINQIRVENPNSLISQSFMLLKKWVTRDGKNATTDALTSVLTKINRIDIVTFLE | -0.231 ± 0.21
30 | MAIVADHLGLSWTELARELNFSVDEINQIRVENPNSLISQSFMLLKKWVTRDGKNATTDALTSVLTKINRIDIVTMLE | 0.067 ± 0.23
31 | MAIVADHLGLSWTELARELNFSVDEINQIRVENPNSLISQSFMLLKKWVTRDGKNATTDALTSVLTKINRIDIVTPLE | -0.438 ± 0.079
32 | MAIVADHLGLSWTELARELNFSVDEINQIRVENPNSLISQSFMLLKKWVTRDGKNATTDALTSVLTKINRIDIVTNLE | -0.292 ± 0.31
33 | MAIVADHLGLSWTELARELNFSVDEINQIRVENPNSLISQSFMLLKKWVTRDGKNATTDALTSVLTKINRIDIVTALE | 0.08 ± 0.077
34 | MAIVADHLGLSWTELARELNFSVDEINQIRVENPNSLISQSFMLLKKWVTRDGKNATTDALTSVLTKINRIDIVTDLE | -0.351 ± 0.32
35 | MAIVADHLGLSWTELARELNFSVDEINQIRVENPNSLISQSFMLLKKWVTRDGKNATTDALTSVLTKINRIDIVTHLE | -0.064 ± 0.12
